Measurements from article PMC5512451.

Target: N90-VRC38.01 IgG (human)
Experiment: SPR

BG505.DS.T332N.SOSIP.664 gp140 trimer (complex)
fold stronger binding of the IgG than of the Fab: > 7 fold
